Experiments:
[1] = tested on: estrogen receptor alpha (pER, ser 167 and ser 118); experiment: Western blot/densitometry for phosphorylated estrogen receptor in ligand-stimulated MCF7 cells; assay type: cell-based, human; settings: for phosphorylation of the estrogen receptor in stimulated cells: MCF7 cells without MM-121, stimulated 30 minutes, betacellulin relative to heregulin
Excerpt: (§1) FIG. 1 comprises images of western blots of a gel of lysates from untreated control cells (“C”), cells pretreated with (“MM121”) or without pretreatment with MM-121 that were stimulated with heregulin beta 1 (“HRG”), betacellulin (“BTC”), or estrogen (“E2”).
FIG. 2 is a graph showing densitometry results from the relevant (pER) band in each of the control (“Con.”), heregulin (“HRG”), betacellulin (“BTC”), heregulin plus MM-121 (“HRG+MM121”) and betacellulin plus MM-121 (“BTC+MM121”) lanes in FIG. 1. Band density was normalized to GAPDH density and the normalized density (Y-axis) is shown for control and stimulated cells (both with and without MM-121 pretreatment) as indicated on the X-axis. The arrowhead between the HRG and BTC lanes indicates the pER band in the HRG lane.
(§2) MCF7 cells are either untreated or pretreated with MM-121 (250 nM) for 1 hour. Cells are then stimulated with heregulin betal (EGF domain, 10 nM R&D systems), betacellulin (20 nM, R&D systems) or estrogen (beta estradiol—100 nM, Sigma) for 30 minutes, or left unstimulated. Lysates of the cells are analyzed by western blot probed for pER and for pErbB3.
(§3) Cells were either untreated or pretreated with MM-121. Untreated and pretreated cells were stimulated with heregulin, betacellulin, or estrogen. Cell lysates were analyzed by western blot for phosphorylated forms of ErbB3 and estrogen receptor.

ErbB3 (pErbB3) = biological target: T1, ErbB3 (pErbB3) (Homo sapiens, UniProt P21860); experiment: Western blot for phosphorylated ErbB3 in ligand-stimulated MCF7 cells; assay type: cell-based; settings: for phosphorylation of ErbB3 in stimulated cells: MCF7 cells without MM-121, stimulated 30 minutes, betacellulin relative to heregulin
T1 construct: endogenous in cells; host or cells: MCF7
Experimental: as §1, §2, §3

MCF-7CA tumors = experiment: Letrozole-resistant MCF-7CA intratumoral aromatase xenograft model; assay type: in vivo, mice; settings: for tumor growth during initial treatment: MM-121 600 μg Q3D i.p., letrozole 10 μg/mouse/day, treatment from the start; for tumor volume after acquired letrozole resistance: letrozole-resistant tumors re-grouped at about 14 weeks, followed to 19 weeks
Experimental: To investigate the mechanism of AI resistance, a xenograft model was developed that corresponds to ER+ postmenopausal breast cancer. Tumors for this intratumoral aromatase xenograft model are grown from MCF7 human breast adenocarcinoma cells that have been stably transfected with a human placental aromatase gene to provide a non-ovarian source of estrogen production in ovariectomized athymic mice (MCF-7CA, see e.g. Brodie et al., Clinical Cancer Research 884s Vol. 11, 884s-888s, Jan. 15, 2005 (Suppl.)). Sufficient estrogen is produced (from aromatization of injected androstenedione) by the MCF7-CA cells to stimulate their proliferation and tumor formation. This is a model of a postmenopausal breast cancer patient with tumors that express aromatase and are free of gonadotropin feedback regulation.
MCF-7CA cells were cultured in Eagle's minimum essential medium containing 5% fetal bovine serum and neomycin. The culture medium was changed twice weekly. Subconfluent MCF-7CA cells were scraped into Hank's solution and centrifuged at 1,000 rpm for 2 min at 4° C. The cells were then resuspended in Matrigel™ (10 mg/ml) to make a cell suspension of 2-5×10^7 cells/ml. Ovariectomized female BALB/c athymic mice 4-6 weeks of age (20-22 g body weight) were housed in a pathogen-free environment under controlled conditions of light and humidity and received food and water ad libitum. Each mouse was inoculated subcutaneously (s.c.) with 0.1 ml of the cell suspension. Animals were then injected s.c. daily with 0.1 mg androstenedione/mouse. Growth rates were determined by measuring the tumors with calipers weekly. Tumor volumes were calculated according to the formula for a sphere (4/3 r12. r 2). When tumors reached a measurable size, mice were divided into groups of 10 animals with equivalent tumor volumes (300 mm^3). Mice were treated with 0.1 ml compounds in 0.3% hydroxypropylcellulose (HPC) for 6 weeks.
Tumors were measured weekly and tumor volume was calculated. Mice were sacrificed if tumors continued to grow to volumes of greater than about 1400-1700 mm^3.

[2] = tested on: TAMR-1, TAMR-7, or TAMR-8 cells (tamoxifen-resistant human mammary carcinoma xenografts); experiment: Tamoxifen-resistant MCF7 variant xenografts, MM-121 monotherapy; assay type: in vivo; settings: 600 μg per mouse IP every three days; TAMR xenografts in nude mice
Experimental: Analyses of the anti-tumor efficacy and tolerability of MM-121 treatment of ER+ hormone refractory mammary tumor-bearing mice are carried out using xenografts of tamoxifen-resistant variants of MCF7 human mammary carcinoma cells. Tamoxifen-resistant human mammary carcinoma cell lines TAMR-1, TAMR-7, and TAMR-8 cells are obtained from the laboratory of A. E. Lykkesfeldt (Department of Tumor Endocrinology, Division for Cancer Biology, Danish Cancer Society. Strandboulevarden 49, DK-2100 Copenhagen 0, Denmark). These are grown as xenografts in female athymic nu+/nu+ nude mice obtained from Charles River Laboratories International. […]
To investigate anti-tumor efficacy in monotherapy, MM-121 or vehicle control (100 μL) is given to tumor-bearing mice (i.e., after 14 days of tumor growth following injection of cells) at 600 μg per mouse (MM-121 as a 6 mg/mL solution in PBS) by IP injection every three days. […] Efficacy is determined by comparing tumor growth between the antibody-treated mice and the vehicle control mice and is expressed as the experimental to control ratio of median relative tumor volumes (T/C value). […]
Mice are randomized and therapy begins when a sufficient number of individual tumors have grown to a volume of approximately 200 mm^3. Tumors are measured (L x W) by digital caliper measurement and the tumor volume is calculated using the formula π/6 (W^2×L). […]

Row | reduction in the amount of pErbB3 (ErbB3 (pErbB3); MCF7 cells pretreated with MM-121 250 nM for 1 hour, heregulin 10 nM for 30 minutes) | Molecule | phosphorylation of the estrogen receptor in stimulated cells [1] | phosphorylation of ErbB3 in stimulated cells (ErbB3 (pErbB3)) | level of ER phosphorylation relative to estrogen stimulation ([1]; MCF7 cells, heregulin 10 nM vs beta estradiol 100 nM, 30 minutes) | tumor growth during initial treatment (MCF-7CA tumors) | time to letrozole resistance (tumor volume increased to 600 mm^3) (MCF-7CA tumors; daily letrozole 10 μg/mouse/day) | tumor volume after acquired letrozole resistance (MCF-7CA tumors) | reduction in the amount of pER ([1]; MCF7 cells pretreated with MM-121 250 nM for 1 hour, heregulin 10 nM for 30 minutes, densitometry normalized to GAPDH) | tumor growth [2]
1 |  | betacellulin: betacellulin (R&D systems), EGF-like stimulating ligand | to a lesser extent (about ⅔ less) | to a lesser extent (about ⅔ less) |  |  |  |  |  | 
2 |  | heregulin: heregulin beta 1 (EGF domain, R&D systems), stimulating ligand | exhibited phosphorylation of both the estrogen receptor and ErbB3 | exhibited phosphorylation of both the estrogen receptor and ErbB3 | at least four-fold |  |  |  |  | 
3 |  | N#Cc1ccc(C(c2ccc(C#N)cc2)n2cncn2)cc1 [letrozole] |  |  |  | progressed more slowly | about 14 weeks | continued to increase in volume over time |  | 
4 | about ⅔ | MM-121: fully human anti-ErbB3 monoclonal antibody; VH and VL SEQ ID NOs: 1 and 2; heavy and light chains SEQ ID NOs 42 and 43 (antibody, listed as Homo sapiens) heavy: EVQLLESGGGLVQPGGSLRLSCAASGFTFSHYVMAWVRQAPGKGLEWVSSISSSGGWTLYADSVKGRFTISRDNSKNTLYLQMNSLRAEDTAVYYCTRGLKMATIFDYWGQGTLVTVSSASTKGPSVFPLAPCSRSTSESTAALGCLVKDYFPEPVTVSWNSGALTSGVHTFPAVLQSSGLYSLSSVVTVPSSNFGTQTYTCNVDHKPSNTKVDKTVERKCCVECPPCPAPPVAGPSVFLFPPKPKDTLMISRTPEVTCVVVDVSHEDPEVQFNWYVDGVEVHNAKTKPREEQFNSTFRVVSVLTVVHQDWLNGKEYKCKVSNKGLPAPIEKTISKTKGQPREPQVYTLPPSREEMTKNQVSLTCLVKGFYPSDIAVEWESNGQPENNYKTTPPMLDSDGSFFLYSKLTVDKSRWQQGNVFSCSVMHEALHNHYTQKSLSLSPGK light: QSALTQPASVSGSPGQSITISCTGTSSDVGSYNVVSWYQQHPGKAPKLIIYEVSQRPSGVSNRFSGSKSGNTASLTISGLQTEDEADYYCCSYAGSSIFVIFGGGTKVTVLGQPKAAPSVTLFPPSSEELQANKATLVCLVSDFYPGAVTVAWKADGSPVKVGVETTKPSKQSNNKYAASSYLSLTPEQWKSHRSYSCRVTHEGSTVEKTVAPAECS |  |  |  | grew rapidly over the course of 5 weeks |  | continued to increase in volume over time | about ⅔ | inhibits or stops tumor growth, and in some cases reduces tumor size

— patent US20140134170A1, “USE OF INHIBITORS OF EGFR-FAMILY RECEPTORS IN THE TREATMENT OF HORMONE REFRACTORY BREAST CANCERS” (MERRIMACK PHARMACEUTICALS, INC., priority 2011, published 2014)
